US10357539B2, “Use of peptides that block metadherin-SND1 interaction as treatment for cancer” (THE TRUSTEES OF PRINCETON UNIVERSITY, priority 2014, dated 2019)
“Also recorded” adds a separate entry of the source.

Target: T1, MTDH-SND1 interaction (Homo sapiens, UniProt Q7KZF4)
T1 construct: Full-length HA-tagged SND1 was co-expressed with full-length Myc-tagged wild-type (WT) or mutant MTDH in HEK293T cells; expressed in transfected cells; host or cells: 293T
T1 sequence (Q7KZF4 1-910): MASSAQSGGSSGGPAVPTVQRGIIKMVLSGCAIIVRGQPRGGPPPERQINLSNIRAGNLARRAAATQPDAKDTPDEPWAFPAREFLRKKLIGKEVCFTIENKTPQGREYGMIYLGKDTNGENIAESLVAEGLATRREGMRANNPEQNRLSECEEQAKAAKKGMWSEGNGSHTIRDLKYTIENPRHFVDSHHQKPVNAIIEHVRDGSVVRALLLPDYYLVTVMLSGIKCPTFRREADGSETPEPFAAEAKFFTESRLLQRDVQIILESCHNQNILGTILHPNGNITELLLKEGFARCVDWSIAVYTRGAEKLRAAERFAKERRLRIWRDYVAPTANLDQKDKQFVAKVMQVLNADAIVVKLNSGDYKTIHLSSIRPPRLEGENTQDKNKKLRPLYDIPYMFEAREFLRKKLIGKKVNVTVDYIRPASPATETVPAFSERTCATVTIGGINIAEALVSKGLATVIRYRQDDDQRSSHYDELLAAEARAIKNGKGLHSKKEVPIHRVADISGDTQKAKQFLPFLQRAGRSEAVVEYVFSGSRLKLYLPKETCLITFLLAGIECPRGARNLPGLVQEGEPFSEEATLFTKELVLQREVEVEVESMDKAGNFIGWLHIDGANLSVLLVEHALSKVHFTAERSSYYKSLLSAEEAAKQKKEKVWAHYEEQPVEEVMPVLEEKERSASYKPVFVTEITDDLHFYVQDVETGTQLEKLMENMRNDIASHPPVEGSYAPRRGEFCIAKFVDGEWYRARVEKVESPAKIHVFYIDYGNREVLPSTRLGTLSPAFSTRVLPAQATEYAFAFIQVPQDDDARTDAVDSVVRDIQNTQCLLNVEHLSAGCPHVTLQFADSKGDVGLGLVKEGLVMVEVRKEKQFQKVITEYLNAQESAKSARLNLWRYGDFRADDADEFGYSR
Experiment: Immunoprecipitation assay: elution or co-incubation with MTDH peptides, western blot
Assay type: biochemical
Conditions: 50 uM of peptides; IP of HA-SND1 from 293T (HA-SND1 + MYC-MTDH) and of endogenous SND1 from MDA-MB-231
Protocol: 293T cells co-transfected with HA-SND1 and MYC-MTDH. After 48 hr cells were collected and subjected to IP assay. (FIG. 26A, FIG. 26B) Cell lysate was incubated with anti-HA antibody or IgG overnight followed by 2 hr incubation with Protein A/G beads to pull down HA-SND1 protein. The beads was washed with lysis buffer and split into 5 fractions. Each fraction was eluted with buffer or indicated peptides for 30 min. The elution fractions and beads were collected for WB. (FIG. 26C, FIG. 26D) Cell lyaste was split into 6 fractions, one of them was incubated with IgG and the rest were incubated with anti-HA antibody plus either buffer or indicated peptides. After 24 hr, the lysate was incubated with Protein A/G beads then the beads were washed in wash buffer.
Breast cancer cells MDA-MB231 were collected and subjected to IP assay. (FIG. 27A) Cell lysate was incubated with anti-SND1 antibody or IgG overnight followed by 2 hr incubation with Protein A/G beads to pull down endogenous SND1 protein. The beads were washed with lysis buffer and split into 5 fractions. Each fraction was eluted with buffer or indicated peptides for 30 min. The elution fractions and beads were collected for WB. (FIG. 27B) Cell lyaste was split into 5 fractions, and incubated with anti-SND1 antibody plus either buffer or indicated peptides. After 24 hr, the lysate was incubated with Protein A/G beads then the beads were washed in wash buffer.
293 T cells were co-transfected with HA-SND1 and MYC-MTDH. After 48 hours, the cells were collected and subject to immunoprecipitation assay. Cell lysate was incubated with anti-HA antibody or IgG overnight followed by a two hour incubation with Protein A/G beads to pull down HA-SND1 protein. The beads were washed with lysis buffer and split into five fractions. Each fraction was eluted with buffer or indicated peptides (i.e., Peptide—wt (PNSDWNAPAEEWGNW, SEQ ID NO: 16); Peptide-394A (PNSDANAPAEEWGNW, SEQ ID NO: 17); Peptide-401A (PNSDWNAPAEEAGNW, SEQ ID NO: 18) and Peptide-MT (PNSDANAPAEEAGNW, SEQ ID NO: 19) for 30 minutes.
The elution fractions and beads were collected for western blot. (FIGS. 26C and 26D) Cell lyaste was split into 6 fractions. One of the fractions was incubated with IgG and the rest were incubated with anti-HA antibody plus either buffer or indicated peptides. After 24 hours, the lysate was incubated with Protein A/G beads then the beads was washed followed by wash buffer. 50 uM of peptides was used in all the assays.
The interaction interruption effects was confirmed by endogenous immunoprecipitation (IP) of a breast cancer cell line. Briefly, cell lysates from the breast cancer cell line MDA-MB-231 were collected and subjected to IP assay. […]

Sequence	block of MTDH-SND1 interaction by peptide
PNSDWNAPAEEWGNW (listed as Homo sapiens) [wild type MTDH peptide]	can effectively block MTDH-SND1 interaction; also recorded: significant block MTDH-SND1 interaction
PNSDANAPAEEAGNW (listed as Homo sapiens) [double point mutation]	have no effect in interrupting the interaction of MTDH with SND1
PNSDWNAPAEEAGNW (listed as Homo sapiens)	reduced the effectiveness of the wild type peptide by half
